Assay results as given in patent US20210277125A1 (University of California, published 2021).
Positions count from the first letter of the chain named. Values belong to the binder of their own block, whether it stands above or below them.

Legend:
[1] = biological target: T1, recombinant αvβ8 ectodomain (UniProt P06756 31-992; P26012 43-684, limits assumed); assay: cell-based or functional assay
[2] = biological target: T2, integrin αvβ8 on human ovarian carcinoma line OVCAR3 (human, UniProt P06756 31-1048; P26012 43-769); assay: flow cytometry on OVCAR3 cells, 15 min at 4 °C, detection with anti-mouse (H+L)-PE, MFI against nM antibody
T2 construct: whole, on cells; also called OVCAR3 cells
Protocol: (§1) All antibodies were produced in CHO cells. […] Primary […] were incubated at 4° C. for 15 min.

[3] = biological target: T1, recombinant αvβ8 ectodomain; assay: kinetic exclusion assay (KinExA)
Protocol: Affinity for the antibodies described in the Examples was determined using a kinetic exclusion assay format. KinExA (https://www.sapidyne.com). The affinity was calculated as follows: […]

[4] = biological target: recombinant integrin αvβ1 (UniProt P06756 31-992; P05556 21-728); assay: ELISA: plate coated with antibody (2 µg/ml), recombinant integrin added, detected with 8B8-biotin and Streptavidin-HRP
Protocol: (§2) ELISA plates were coated with antibodies (2 μg/ml), washed, blocked with BSA, and then recombinant integrins were added at the indicated concentrations. After a brief incubation at RT, wells were washed and bound integrin detected with biotin conjugated anti-αv (8B8-biotin, 1 μg/ml) followed by Streptavidin-HRP. […] Antibodies were incubated at the indicated concentrations for 15 min at 4° C. and after washing detected with anti-mouse-PE.

[5] = biological target: recombinant integrin αvβ3 (UniProt P06756 31-992; P05106 27-718); assay: as above
Protocol: as §2

[6] = biological target: recombinant integrin αvβ5 (UniProt P06756 31-992; P18084 24-719); assay: as above
Protocol: as §2

[7] = biological target: T3, recombinant integrin αvβ6 (UniProt P06756 31-992; P18564 22-707, limits assumed); assay: as above
Protocol: as §2

[8] = biological target: T2, integrin αvβ8 on human ovarian …; assay: flow cytometry on OVCAR3 cells, 15 min at 4 °C, detection with anti-mouse-PE, MFI against antibody concentration, KaleidaGraph fit
Protocol: as §2

[9] = biological target: T2, integrin αvβ8 on human ovarian …; assay: competition flow cytometry on OVCAR3 cells: fixed ADWA11 2.4 (chimeric, murine IgG2a CH2/CH3) with titrated fully human C6D4 F12, 15 min at 4 °C, ADWA11 2.4 detected with anti-mouse (H+L) PE
Protocol: as §1

[10] = biological target: T1, recombinant αvβ8 ectodomain; assay: sandwich ELISA: antibody coated at 2 µg/ml, recombinant integrin titrated, bound integrin detected with anti-αv 8B8-biotin and streptavidin-HRP
Protocol: ELISA plates were coated with antibodies (2 μg/ml), washed, blocked with BSA, and then recombinant integrins were added at the indicated concentrations. After a brief incubation at RT, wells were washed and bound integrin detected with biotin conjugated anti-αv (8B8-biotin, 1 μg/ml) followed by Streptavidin-HRP.

[11] = biological target: T1, recombinant αvβ8 ectodomain; assay: cell-based or functional assay; remark: listed apart in the source
[12] = biological target: T3, recombinant integrin αvβ6; assay: ELISA on coated integrin (1 µg/ml), antibody binding read as A450; antibody concentration not given

T2 sequence (P06756 31-1048, chain 1 of 2): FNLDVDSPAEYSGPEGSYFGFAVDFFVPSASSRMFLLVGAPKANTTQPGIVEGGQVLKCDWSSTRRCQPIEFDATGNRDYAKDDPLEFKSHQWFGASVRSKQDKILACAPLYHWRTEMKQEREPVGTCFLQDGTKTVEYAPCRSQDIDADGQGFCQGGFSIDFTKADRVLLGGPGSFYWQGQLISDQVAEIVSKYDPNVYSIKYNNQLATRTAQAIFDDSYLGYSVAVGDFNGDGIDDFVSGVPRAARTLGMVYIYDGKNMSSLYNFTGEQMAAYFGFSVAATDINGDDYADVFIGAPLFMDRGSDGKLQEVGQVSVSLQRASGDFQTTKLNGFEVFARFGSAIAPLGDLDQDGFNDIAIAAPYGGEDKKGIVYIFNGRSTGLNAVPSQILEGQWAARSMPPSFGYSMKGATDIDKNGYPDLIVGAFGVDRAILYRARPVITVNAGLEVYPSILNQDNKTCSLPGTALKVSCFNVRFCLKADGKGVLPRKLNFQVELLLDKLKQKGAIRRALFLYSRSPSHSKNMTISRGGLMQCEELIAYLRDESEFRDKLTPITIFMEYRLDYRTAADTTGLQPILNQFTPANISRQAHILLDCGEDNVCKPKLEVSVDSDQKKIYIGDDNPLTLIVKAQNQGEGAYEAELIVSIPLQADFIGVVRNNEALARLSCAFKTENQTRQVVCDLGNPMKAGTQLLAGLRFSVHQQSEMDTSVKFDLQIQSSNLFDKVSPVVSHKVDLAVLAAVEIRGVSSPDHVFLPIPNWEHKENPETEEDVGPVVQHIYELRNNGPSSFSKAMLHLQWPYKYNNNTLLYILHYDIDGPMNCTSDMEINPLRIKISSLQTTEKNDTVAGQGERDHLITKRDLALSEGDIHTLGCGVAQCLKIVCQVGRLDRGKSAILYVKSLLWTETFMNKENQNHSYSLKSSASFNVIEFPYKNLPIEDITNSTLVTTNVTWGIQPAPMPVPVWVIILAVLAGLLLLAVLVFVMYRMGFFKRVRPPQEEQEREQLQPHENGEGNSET
T2 sequence (P26012 43-769, chain 2 of 2): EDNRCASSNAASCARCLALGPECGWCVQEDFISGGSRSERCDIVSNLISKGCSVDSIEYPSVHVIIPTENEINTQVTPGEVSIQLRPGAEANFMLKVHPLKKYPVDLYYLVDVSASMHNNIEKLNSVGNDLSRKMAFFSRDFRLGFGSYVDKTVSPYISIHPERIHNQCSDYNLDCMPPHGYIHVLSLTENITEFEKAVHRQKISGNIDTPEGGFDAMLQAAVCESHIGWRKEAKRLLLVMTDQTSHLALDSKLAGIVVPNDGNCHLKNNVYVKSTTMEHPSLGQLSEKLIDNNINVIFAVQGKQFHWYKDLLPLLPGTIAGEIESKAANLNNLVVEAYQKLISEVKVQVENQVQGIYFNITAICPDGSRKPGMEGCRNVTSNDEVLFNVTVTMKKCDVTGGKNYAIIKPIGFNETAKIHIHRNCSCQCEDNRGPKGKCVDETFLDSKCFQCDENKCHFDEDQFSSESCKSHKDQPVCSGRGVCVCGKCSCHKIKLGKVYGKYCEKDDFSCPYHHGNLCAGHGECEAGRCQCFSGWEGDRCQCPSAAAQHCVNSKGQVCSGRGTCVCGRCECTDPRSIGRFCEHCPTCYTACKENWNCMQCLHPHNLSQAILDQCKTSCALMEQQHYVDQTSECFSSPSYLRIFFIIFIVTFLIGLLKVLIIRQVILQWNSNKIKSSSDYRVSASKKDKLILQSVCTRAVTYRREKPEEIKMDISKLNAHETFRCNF
T1 sequence (P06756 31-992 limits assumed, chain 1 of 2): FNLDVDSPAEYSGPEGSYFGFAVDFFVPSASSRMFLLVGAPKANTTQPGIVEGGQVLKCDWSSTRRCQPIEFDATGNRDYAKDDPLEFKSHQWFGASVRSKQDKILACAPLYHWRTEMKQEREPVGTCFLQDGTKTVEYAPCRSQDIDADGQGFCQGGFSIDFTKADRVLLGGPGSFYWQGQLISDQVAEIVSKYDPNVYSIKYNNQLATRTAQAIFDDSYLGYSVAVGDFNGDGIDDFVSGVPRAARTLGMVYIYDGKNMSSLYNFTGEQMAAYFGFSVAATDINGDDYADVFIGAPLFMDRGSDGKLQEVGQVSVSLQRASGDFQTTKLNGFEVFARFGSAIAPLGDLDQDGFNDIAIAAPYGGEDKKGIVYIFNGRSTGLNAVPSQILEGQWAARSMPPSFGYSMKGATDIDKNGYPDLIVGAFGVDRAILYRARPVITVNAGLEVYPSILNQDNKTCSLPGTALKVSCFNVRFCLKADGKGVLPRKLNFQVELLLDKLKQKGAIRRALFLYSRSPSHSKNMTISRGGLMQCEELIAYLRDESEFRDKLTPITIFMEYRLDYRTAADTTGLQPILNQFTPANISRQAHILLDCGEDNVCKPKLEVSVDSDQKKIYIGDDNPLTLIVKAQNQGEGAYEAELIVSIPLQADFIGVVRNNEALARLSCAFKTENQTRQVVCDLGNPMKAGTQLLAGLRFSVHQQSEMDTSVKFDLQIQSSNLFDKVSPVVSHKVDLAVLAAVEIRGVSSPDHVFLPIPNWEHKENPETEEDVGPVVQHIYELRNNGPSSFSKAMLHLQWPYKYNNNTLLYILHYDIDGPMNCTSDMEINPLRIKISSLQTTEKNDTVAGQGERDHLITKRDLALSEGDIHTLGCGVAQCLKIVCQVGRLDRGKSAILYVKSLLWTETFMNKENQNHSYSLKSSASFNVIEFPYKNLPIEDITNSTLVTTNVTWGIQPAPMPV
T1 sequence (P26012 43-684 limits assumed, chain 2 of 2): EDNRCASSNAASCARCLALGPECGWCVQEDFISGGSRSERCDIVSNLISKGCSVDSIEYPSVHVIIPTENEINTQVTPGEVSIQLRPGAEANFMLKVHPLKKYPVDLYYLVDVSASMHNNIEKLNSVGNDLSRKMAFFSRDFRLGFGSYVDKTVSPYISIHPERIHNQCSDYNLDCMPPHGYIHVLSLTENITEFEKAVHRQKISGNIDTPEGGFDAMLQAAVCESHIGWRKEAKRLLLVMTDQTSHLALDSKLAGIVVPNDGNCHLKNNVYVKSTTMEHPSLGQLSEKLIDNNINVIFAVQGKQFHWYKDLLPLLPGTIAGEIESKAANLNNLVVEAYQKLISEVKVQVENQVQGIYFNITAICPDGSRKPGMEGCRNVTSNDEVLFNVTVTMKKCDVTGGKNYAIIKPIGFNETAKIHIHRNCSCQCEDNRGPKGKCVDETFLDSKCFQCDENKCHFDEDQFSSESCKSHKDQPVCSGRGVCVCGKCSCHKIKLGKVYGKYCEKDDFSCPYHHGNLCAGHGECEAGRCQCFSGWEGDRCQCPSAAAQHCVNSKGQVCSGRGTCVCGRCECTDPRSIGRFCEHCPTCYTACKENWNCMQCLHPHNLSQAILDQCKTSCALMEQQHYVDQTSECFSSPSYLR
T3 sequence (P06756 31-992 limits assumed, chain 1 of 2): as the sequence (P06756 31-992 limits assumed, chain 1 of 2) above
T3 sequence (P18564 22-707 limits assumed, chain 2 of 2): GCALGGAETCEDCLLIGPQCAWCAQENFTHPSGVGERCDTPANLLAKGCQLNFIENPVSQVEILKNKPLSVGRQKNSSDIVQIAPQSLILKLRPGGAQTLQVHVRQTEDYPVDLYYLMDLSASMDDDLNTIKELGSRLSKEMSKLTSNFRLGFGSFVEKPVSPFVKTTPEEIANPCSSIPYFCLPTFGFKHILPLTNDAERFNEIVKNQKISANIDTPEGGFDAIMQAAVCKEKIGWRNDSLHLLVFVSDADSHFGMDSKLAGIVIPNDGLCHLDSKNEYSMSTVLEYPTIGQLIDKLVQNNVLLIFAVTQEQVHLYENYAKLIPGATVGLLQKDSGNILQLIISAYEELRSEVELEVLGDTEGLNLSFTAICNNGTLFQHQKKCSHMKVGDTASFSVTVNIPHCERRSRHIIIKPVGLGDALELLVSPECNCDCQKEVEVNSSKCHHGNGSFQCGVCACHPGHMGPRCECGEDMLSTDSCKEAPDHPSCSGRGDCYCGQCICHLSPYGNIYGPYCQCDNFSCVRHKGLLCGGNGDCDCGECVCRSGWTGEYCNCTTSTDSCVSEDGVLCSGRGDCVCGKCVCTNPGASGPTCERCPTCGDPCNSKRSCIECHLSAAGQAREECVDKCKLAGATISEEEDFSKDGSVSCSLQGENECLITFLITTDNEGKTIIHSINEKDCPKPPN
recombinant integrin αvβ1, sequence (P06756 31-992 limits assumed, chain 1 of 2): as the sequence (P06756 31-992 limits assumed, chain 1 of 2) above
recombinant integrin αvβ1, sequence (P05556 21-728 limits assumed, chain 2 of 2): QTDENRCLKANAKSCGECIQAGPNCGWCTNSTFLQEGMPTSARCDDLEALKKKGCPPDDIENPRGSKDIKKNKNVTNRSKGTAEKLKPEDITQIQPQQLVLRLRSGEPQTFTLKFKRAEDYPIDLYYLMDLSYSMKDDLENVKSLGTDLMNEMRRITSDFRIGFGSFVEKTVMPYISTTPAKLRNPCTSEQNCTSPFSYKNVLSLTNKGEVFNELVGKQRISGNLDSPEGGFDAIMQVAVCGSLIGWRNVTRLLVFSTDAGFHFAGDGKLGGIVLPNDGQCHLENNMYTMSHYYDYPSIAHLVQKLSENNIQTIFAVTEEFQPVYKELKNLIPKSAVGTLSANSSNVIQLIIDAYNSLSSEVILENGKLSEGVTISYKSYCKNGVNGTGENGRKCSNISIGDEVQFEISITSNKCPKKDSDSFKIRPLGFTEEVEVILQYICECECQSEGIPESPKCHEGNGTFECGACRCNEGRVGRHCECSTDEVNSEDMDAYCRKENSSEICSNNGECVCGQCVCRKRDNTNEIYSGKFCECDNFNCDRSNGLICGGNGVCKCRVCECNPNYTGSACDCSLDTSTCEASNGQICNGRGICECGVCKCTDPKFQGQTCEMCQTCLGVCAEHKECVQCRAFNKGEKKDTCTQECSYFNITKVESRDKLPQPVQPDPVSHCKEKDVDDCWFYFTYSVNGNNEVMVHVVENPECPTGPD

IC50 (read off the curve) [9]: ~0.1 µg/mL
B4: fully human C6D4 F12 (version of huC6D4F12 where CH1-3 were all human) (antibody, V domains shown)
VH: QIQLVQSGAEVKKPGASVKISCKASGYTFTKYSMHWVRQAPGQGLEWVARINTETGEPTFADDFRGRFTVTLDTSTSTAYLEIRSLRSDDTAVYFCAIFYYGRDTWGQGTTLTVSS
VL: EIVMTQSPATLSVSPGERVTMSCKSSQSLLHSRSRKNYLAWYQQKPGQAPRLLIYWASTRESGVPARFSGSGSGTEFTLTISSVQSEDFAVYYCKQSYNLLSFGQGTVLEIKR

binding result [10]: binds
B5: C6-TGFβ1RGD (antibody, V domains shown)
VH: B4 VH with K31D
VL: EIVMTQSPATLSVSPGERVTMSCKSSQSLLRRGDLATIHGNALAWYQQKPGQAPRLLIYWASTRESGVPARFSGSGSGTEFTLTISSVQSEDFAVYYCKQSYNLLSFGQGTVLEIKR
notes: also called C6-TGF-TGFβ1RGD

binding result [4]: no binding | binding result [5]: no binding | binding result [6]: no binding | binding result [7]: no binding | Kd [8]: 4.7 nM
B6: antibody with light chain D4 VL1 (N to H) mutation expressed with heavy chain C6 (antibody, V domains shown)
VH: B4 VH with K31D
VL: B4 VL
notes: Single mutant of HuC6D4

inhibition of TGF-β activation (immobilized αvβ8 at 1 µg/ml and TGF-β1/GARP expressing TMLC reporter cells); fold against ADWA11 2.4 [11]: ~77 fold | Kd [3]: 0.00236 nM | IC50 of inhibition of TGF-β activation (TMLC reporter cells expressing TGF-β1/GARP on immobilized αvβ8) [1]: 0.75 µg/mL | Kd [2]: 1.4 nM | binding result [12]: no binding | Kd [8]: 3.1 nM
B7: HuC6D4F12 (antibody, V domains shown)
VH: B4 VH
VL: B4 VL
notes: Whole antibody; also called HC6D4F12; HuC6D412

Continued, binder first:

B1: ADWA11 2.4 (chimeric version: humanized variable domains and CH1, murine IgG2a CH2/CH3) (antibody, V domains shown)
VH: EVQLVESGGGLVQPGGSLRLSCAASGFNIKDYYMNWVRQAPGKGLEWVGWIDPDQGNTIYEPKFQGRFTISADTSKNSAYLQMNSLRAEDTAVYYCARRLLMDYWGQGTLVTVSS
VL: DIQMTQSPSSLSASVGDRVTITCRSTKSLSHFNGNTYLFWYQQKPGKAPKRLIYYMSSLASGVPSRFSGSGSGTDFTLTISSLQPEDFATYYCQQSLEYPFTFGGGTKVEIKR
IC50 of inhibition of TGF-β activation (TMLC reporter cells expressing TGF-β1/GARP on immobilized αvβ8) [1]: 57.7 µg/mL | Kd [2]: 26.3 nM

B2: C6D4 IgG 2a (antibody, V domains shown)
VH: QIQLVQSGPELKKPGETVKISCKASGYTFTDYSMHWVKQAPGKGLKWVARINTETGEPTFADDFRGRFAVSLETSASTAYLQINNLKNEDTATYFCAIFYYGRDSWGQGTTLTVSS
VL: DIVMTQSPSSLAVSAGEKVTMSCKSSQSLLNSRTRKNYLAWYQQKPGQSPRLLIYWASTRESGVPDRFTGSGSGTDFTLTISSVQAEDLAVYYCKQSYNLLSFGAGTKLELKR
notes: IgG2a
Kd [3]: 1.3 nM

B3: antibody with heavy chain with the C6 VH1 (D to K) mutation expressed with light chain D4 (antibody, V domains shown)
VH: B4 VH
VL: B4 VL with H31N
notes: Single mutant of HuC6D4
binding result [4]: no binding | binding result [5]: no binding | binding result [6]: no binding | binding result [7]: no binding | Kd [8]: 2.5 nM

B8: HuC6D4 (antibody, V domains shown)
VH: B4 VH with K31D
VL: B4 VL with H31N
notes: Whole antibody; also called Human C6D4; Humanized C6D4
Kd [3]: 0.0821 nM | Kd [8]: 4.9 nM
